Laboratory results as given in PMC12012533, “Structural basis for immune cell binding of Fusobacterium nucleatum via the trimeric autotransporter adhesin CbpF” (Proceedings of the National Academy of Sciences of the …, 2025).
“And” between values parts separate entries of the source, which are not always exact repeats. Equal values may be shown once.

B1: CEACAM binding protein of Fusobacterium (CbpF) from F. nucleatum ATCC25586, wild type, detergent-solubilised (natural protein)
chain: SAAPVIKAGTATDSTEAGVDNVANGVKSSAFGYDNKAIEKESSAFGTGNRATGEFSSAFGFHNIASKIHSSAFGSNNAADGVNSSAFGFKNTVSGFNSSAFGSQYQVTGNFSGAFGMGEFNGQYQYKNEGNNSYMIGNKNKIASGSDDNFILGNNVHIGGGINNSVALGNNSTVSASNTVSVGSSTLKRKIVNVGDGAISANSSDAVTGRQLYSGNGIDTAAWQNKLNVTRKNDYKDANDIDVNKWKAKLGVGSGGGGGAPVDAYTKSEADNKFANKTDLNDYTKKDDYKDANGIDVDKWKAKLGTGAGTADIENLRNEVNEKIDDVKDEVRTVGSLSAALAGLHPMQYDPKAPVQVMAALGHYRDKQSVAVGASYYFNDRFMMSTGIALSGEKRTKTMANVGFTLKLGKGSGVTYDETPQYVVQNEVKRLTVENQELKERVRNLEEKLNMLLKNK
notes: Cloned in pASK-IBA2C behind an N-terminal E. coli OmpA signal peptide; Homotrimer; also called CbpF WT; CbpF wt; source: E. coli BL21 C43, extracted from membranes with lauroylsarcosine, purified (StrepTactin, SEC)
B2: CEACAM binding protein of Fusobacterium (CbpF), F. nucleatum ATCC25586, wild type (natural protein)
chain: SAAPVIKAGTATDSTEAGVDNVANGVKSSAFGYDNKAIEKESSAFGTGNRATGEFSSAFGFHNIASKIHSSAFGSNNAADGVNSSAFGFKNTVSGFNSSAFGSQYQVTGNFSGAFGMGEFNGQYQYKNEGNNSYMIGNKNKIASGSDDNFILGNNVHIGGGINNSVALGNNSTVSASNTVSVGSSTLKRKIVNVGDGAISANSSDAVTGRQLYSGNGIDTAAWQNKLNVTRKNDYKDANDIDVNKWKAKLGVGSGGGGGAPVDAYTKSEADNKFANKTDLNDYTKKDDYKDANGIDVDKWKAKLGTGAGTADIENLRNEVNEKIDDVKDEVRTVGSLSAALAGLHPMQYDPKAPVQVMAALGHYRDKQSVAVGASYYFNDRFMMSTGIALSGEKRTKTMANVGFTLKLGKGSGVTYDETPQYVVQNEVKRLTVENQELKERVRNLEEKLNMLLKNK
modifications: AlexaFluor 647 NHS-ester conjugate (cell binding and competition assays only)
notes: CbpF (FN1499) of Fusobacterium nucleatum ATCC25586, codon-optimized gene; mature protein after signal peptide cleavage, residues S24-K479; numbers count on the precursor with its own signal peptide; Cloned in frame with an N-terminal E. coli OmpA signal peptide (export signal; In detergent for SPR and the SEC test, in DMPC/MSP1D1 nanodiscs for cryo-EM and the cell assays; also called CbpF wt; …)
B3: CEACAM1 extracellular domain (residues 35–428), C-terminal hexahistidine tag (domain or fragment, human, UniProt P13688 35-428, looked up)
chain: QLTTESMPFNVAEGKEVLLLVHNLPQQLFGYSWYKGERVDGNRQIVGYAIGTQQATPGPANSGRETIYPNASLLIQNVTQNDTGFYTLQVIKSDLVNEEATGQFHVYPELPKPSISSNNSNPVEDKDAVAFTCEPETQDTTYLWWINNQSLPVSPRLQLSNGNRTLTLLSVTRNDTGPYECEIQNPVSANRSDPVTLNVTYGPDTPTISPSDTYYRPGANLSLSCYAASNPPAQYSWLINGTFQQSTQELFIPNITVNNSGSYTCHANNSVTGCNRTTVKTIIVTELSPVVAKPQIKASKTTVTGDKDSVNLTCSTNDTGISIRWFFKNQSLPSSERMKLSQGNTTLSINPVKREDAGTYWCEVFNPISKNQSDPIMLNVNYNALPQENGLSPG
modifications: glycosylated (N-acetylglucosamines modelled on the IgV-like and IgC2-like A1 domains)
notes: human carcinoembryonic antigen-related cell adhesion molecule 1 (CEACAM1), extracellular domain, residues 35-428 of UniProt P13688; also called CEACAM1/ECD; CEACAM1-ECD; source: bought: ACRO Biosystems (Cat. No. CE1-H5220), produced in HEK293 cells; not shown: His6, C-terminal, kept

Assays:
[1] = biological target: the molecule itself; experiment: SDS-PAGE (SDS- and heat-resistant oligomer); elution fractions of membrane-extracted CbpF from StrepTactin resin; monomer at 50 kDa, trimer at 150 kDa
[2] = biological target: the molecule itself; experiment: SDS-PAGE (SDS- and heat-resistant oligomer); purified CbpF, in detergent and after reconstitution in DMPC/MSP1D1 nanodiscs; band above 150 kDa
[3] = biological target: B3; experiment: cryo-EM structure; 4.6 µM nanodisc-embedded CbpF (trimer) incubated with 14 µM CEACAM1/ECD for 60 min at 23 °C, excess CEACAM1 removed by SEC; single particle analysis, C3 symmetry; settings: both partners purified
[4] = biological target: T1, CEACAM1-eGFP fusion protein on transfected HEK293T cells (human, UniProt P13688 35-526); experiment: confocal fluorescence microscopy of labelled protein on cells; 1 µM AlexaFluor 647-labelled CbpF nanodiscs on HEK293T cells transfected with CEACAM1-GFP, 2 h at 37 °C, compared with empty nanodiscs; integrated fluorescence colocalizing with GFP or with the membrane stain; settings: one partner purified
T1 construct: human CEACAM1 expressed from pcDNA3.1 as a GFP fusion; also called GFP-tagged CEACAM1; CEACAM1-GFP; source: HEK293T, transfected (pcDNA3.1, CMV promotor), on cells
T1 sequence (looked up): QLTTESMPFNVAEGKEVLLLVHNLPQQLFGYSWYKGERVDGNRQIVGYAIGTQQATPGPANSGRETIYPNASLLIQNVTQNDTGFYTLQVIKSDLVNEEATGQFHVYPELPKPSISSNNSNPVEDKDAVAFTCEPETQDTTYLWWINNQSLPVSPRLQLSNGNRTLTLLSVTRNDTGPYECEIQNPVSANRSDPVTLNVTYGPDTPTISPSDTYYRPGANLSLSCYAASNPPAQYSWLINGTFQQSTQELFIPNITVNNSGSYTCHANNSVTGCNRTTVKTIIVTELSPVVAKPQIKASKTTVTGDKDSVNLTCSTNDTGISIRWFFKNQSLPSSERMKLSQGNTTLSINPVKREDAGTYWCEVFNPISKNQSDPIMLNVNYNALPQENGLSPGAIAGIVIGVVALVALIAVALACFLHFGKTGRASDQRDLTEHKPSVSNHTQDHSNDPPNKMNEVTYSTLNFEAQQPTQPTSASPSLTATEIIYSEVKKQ

[5] = biological target: B2; experiment: SPR; same sensorgrams as a4, steady-state signals of the binding curves evaluated; settings: both partners purified
[6] = biological target: B2; experiment: competition of cell binding (confocal fluorescence microscopy); labelled CbpF nanodiscs preincubated with 1 or 2 µM purified CEACAM1-ECD for 30 min at 25 °C before incubation with cells; settings: both partners purified
[7] = biological target: B2; experiment: SPR; Biacore T200; CEACAM1-ECD-His6 captured on an anti-His antibody on a CM5 chip (~35 RU); CbpF injected, 11.5 to 1,480 nM (WT) or 15.6 to 1,000 nM (WT and variants); 25 mM MOPS-NaOH, 150 mM NaCl, 1 % P8POE, pH 7.0, 25 °C; global fit with a 1:1 Langmuir or a heterogeneous ligand model; settings: both partners purified
[8] = biological target: B1; experiment: SPR; CEACAM1-ECD-His6 captured (about 35 RU) on anti-His antibody on a CM5 chip, Biacore T200; CbpF injected at 11.5-1480 nM (WT) or 15.6-1000 nM (WT and variants); 25 mM MOPS-NaOH, 150 mM NaCl, 1 % P8POE, pH 7.0, 25 °C; 240 s association, 600 s dissociation; 1:1 Langmuir global fit; settings: both partners purified

With B1 the “stoichiometry N” value [1] was 3.

With B2 the “stoichiometry N” value [2] was 3, the “stoichiometry N” value [3] was 1 CEACAM1 per CbpF protomer and the “fold increase of the mean fluorescence signal over empty nanodiscs (colocalizing with cells)” value [4] was 9.3 fold. For the same binder, the “fold increase of the mean fluorescence signal over nanodiscs without CbpF (colocalizing with CEACAM1-GFP)” value [4] was ~460 fold.

B3 was tested, and the Kd [5] was 75 ± 14 nM, the “fold decrease of the CbpF signal on cells after preincubation” value [6] was ~11 fold and the Kd [7] was 6.2 nM. The koff [7] was 0.00051 s⁻¹ and the kon [7] was 81300 M⁻¹ s⁻¹.

B4: CEACAM1 extracellular domain (residues 35-428), C-terminal hexahistidine tag (domain or fragment, human, UniProt P13688 35-428, looked up)
chain: QLTTESMPFNVAEGKEVLLLVHNLPQQLFGYSWYKGERVDGNRQIVGYAIGTQQATPGPANSGRETIYPNASLLIQNVTQNDTGFYTLQVIKSDLVNEEATGQFHVYPELPKPSISSNNSNPVEDKDAVAFTCEPETQDTTYLWWINNQSLPVSPRLQLSNGNRTLTLLSVTRNDTGPYECEIQNPVSANRSDPVTLNVTYGPDTPTISPSDTYYRPGANLSLSCYAASNPPAQYSWLINGTFQQSTQELFIPNITVNNSGSYTCHANNSVTGCNRTTVKTIIVTELSPVVAKPQIKASKTTVTGDKDSVNLTCSTNDTGISIRWFFKNQSLPSSERMKLSQGNTTLSINPVKREDAGTYWCEVFNPISKNQSDPIMLNVNYNALPQENGLSPG
modifications: glycosylated
notes: carcinoembryonic antigen-related cell adhesion molecule 1 (CEACAM1), human, extracellular domain, residues 35-428; also called CEACAM1-ECD; CEACAM1/ECD; source: bought: ACRO Biosystems, Cat. No. CE1-H5220, produced in HEK293 cells; not shown: His6, C-terminal, kept
B4 was tested, and the Kd [8] was 6.16 nM and 6.29 nM, the koff [8] was 0.000501 s⁻¹ and 0.000844 s⁻¹ and the kon [8] was 134000 M⁻¹ s⁻¹.
